The test system of series [1] is HeLa Kyoto. The series is described as follows: solubility in G1/S (NP-40 vs SDS abundance) (log2 ratio); higher = more soluble. Conditions: cell cycle stage: G1/S.
Series [2] deals with HeLa Kyoto. The series is described as follows: melting temperature (median over replicates), in situ; higher = more thermally stable.
The subject of series [3] is HeLa Kyoto. Put plainly: solubility change mitosis vs G1/S (difference of NP-40 vs SDS log2 ratios) (log2 ratio difference); higher = more soluble in mitosis.
In series [4] the test system is HeLa Kyoto. Put plainly: thermal stability score vs G1/S (z-score of summed log2 fold changes over temperatures); higher = more thermally stable than in G1/S.
Setting [5] is: cell cycle stage: early G1 (4.5 h after nocodazole release).
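Throughout, for melting temperature (median over replicates), in situ: HeLa Kyoto cells synchronized by double thymidine or nocodazole block, proteins quantified by TMT10plex mass spectrometry, three independent biological replicates.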
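Throughout, for solubility change mitosis vs G1/S (difference of NP-40 vs SDS log2 ratios): synchronized HeLa Kyoto cells (double thymidine block for G1/S, nocodazole release for mitosis), protein amounts in NP-40 versus SDS lysates quantified by mass spectrometry, three biological replicates.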
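Throughout, for solubility in G1/S (NP-40 vs SDS abundance): HeLa Kyoto cells arrested at G1/S by double thymidine block, proteins quantified by TMT10plex mass spectrometry in mild NP-40 versus SDS extracts, three biological replicates.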
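Throughout, for thermal stability score vs G1/S (z-score of summed log2 fold changes over temperatures): synchronized HeLa Kyoto cells, proteins quantified by TMT10plex mass spectrometry, three biological replicates, mitosis taken 0.5 h after nocodazole release, G1/S directly after double thymidine block.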

As to “MDPFTEKLLERTRARRENLQRKMAERPTAAPRSMTHAKRARQPLSEASNQQPLSGGEEKSCTKPSPSKKRCSDNTEVEVSNLENKQPVESTSAKSCSPSPVSPQVQPQAADTISDSVAVPASLLGMRRGLNSRLEATAASSVKTRMQKLAEQRRRWDNDDMTDDIPESSLFSPMPSEEKAASPPRPLLSNASATPVGRRGRLANLAATICSWEDDVNHSFAKQNSVQEQPGTACLSKFSSASGASARINSSSVKQEATFCSQRDGDASLNKALSSSADDASLVNASISSSVKATSPVKSTTSITDAKSCEGQNPELLPKTPISPLKTGVSKPIVKSTLSQTVPSKGELSREICLQSQSKDKSTTPGGTGIKPFLERFGERCQEHSKESPARSTPHRTPIITPNTKAIQERLFKQDTSSSTTHLAQQLKQERQKELACLRGRFDKGNIWSAEKGGNSKSKQLETKQETHCQSTPLKKHQGVSKTQSLPVTEKVTENQIPAKNSSTEPKGFTECEMTKSSPLKITLFLEEDKSLKVTSDPKVEQKIEVIREIEMSVDDDDINSSKVINDLFSDVLEEGELDMEKSQEEMDQALAESSEEQEDALNISSMSLLAPLAQTVGVVSPESLVSTPRLELKDTSRSDESPKPGKFQRTRVPRAESGDSLGSEDRDLLYSIDAYRSQRFKETERPSIKQVIVRKEDVTSKLDEKNNAFPCQVNIKQKMQELNNEINMQQTVIYQASQALNCCVDEEHGKGSLEEAEAERLLLIATGKRTLLIDELNKLKNEGPQRKNKASPQSEFMPSKGSVTLSEIRLPLKADFVCSTVQKPDAANYYYLIILKAGAENMVATPLASTSNSLNGDALTFTTTFTLQDVSNDFEINIEVYSLVQKKDPSGLDKKKKTSKSKAITPKRLLTSITTKSNIHSSVMASPGGLSAVRTSNFALVGSYTLSLSSVGNTKFVLDKVPFLSSLEGHIYLKIKCQVNSSVEERGFLTIFEDVSGFGAWHRRWCVLSGNCISYWTYPDDEKRKNPIGRINLANCTSRQIEPANREFCARRNTFELITVRPQREDDRETLVSQCRDTLCVTKNWLSADTKEERDLWMQKLNQVLVDIRLWQPDACYKPIGKP [ANLN]”, the “solubility in G1/S (log2)” value in the series with HeLa Kyoto [1] is -0.029. The values for the melting temperature with HeLa Kyoto [2] (cell cycle stage: G1/S) and with HeLa Kyoto [2] (cell cycle stage: mitosis) were 47 °C and 49.6 °C, respectively. Moreover, the “solubility change mitosis (log2)” value in the series with HeLa Kyoto [3] was found to be 0.0107. Besides, the thermal stability score in the series with HeLa Kyoto [4] (setting [5]) was found to be 5.84; in the series on HeLa Kyoto [4] (cell cycle stage: mitosis) it was 9.22.
On to “MDPLGAPSQFVDVDTLPSWGDSCQDELNSSDTTAEIFQEDTVRSPFLYNKDVNGKVVLWKGDVALLNCTAIVNTSNESLTDKNPVSESIFMLAGPDLKEDLQKLKGCRTGEAKLTKGFNLAARFIIHTVGPKYKSRYRTAAESSLYSCYRNVLQLAKEQSMSSVGFCVINSAKRGYPLEDATHIALRTVRRFLEIHGETIEKVVFAVSDLEEGTYQKLLPLYFPRSLKEENRSLPYLPADIGNAEGEPVVPERQIRISEKPGAPEDNQEEEDEGLGVDLSFIGSHAFARMEGDIDKQRKLILQGQLSEAALQKQHQRNYNRWLCQARSEDLSDIASLKALYQTGVDNCGRTVMVVVGRNIPVTLIDMDKALLYFIHVMDHIAVKEYVLVYFHTLTSEYNHLDSDFLKKLYDVVDVKYKRNLKAVYFVHPTFRSKVSTWFFTTFSVSGLKDKIHHVDSLHQLFSAISPEQIDFPPFVLEYDARENGPYYTSYPPSPDL [GDAP2]”, for which the “solubility in G1/S (log2)” value in the series with HeLa Kyoto [1] was determined as 0.111. Also, the values for the melting temperature with HeLa Kyoto [2] (cell cycle stage: G1/S) and in the series on HeLa Kyoto [2] (cell cycle stage: mitosis) were 48.2 °C and 49.1 °C, respectively. The “solubility change mitosis (log2)” value in the series on HeLa Kyoto [3] is -0.148. The thermal stability score came to 0.35 in the series on HeLa Kyoto [4] (setting [5]) and 0.405 in the series on HeLa Kyoto [4] (cell cycle stage: mitosis).
Take “MDPSLLRERELFKKRALSTPVVEKRSASSESSSSSSKKKKTKVEHGGSSGSKQNSDHSNGSFNLKALSGSSGYKFGVLAKIVNYMKTRHQRGDTHPLTLDEILDETQHLDIGLKQKQWLMTEALVNNPKIEVIDGKYAFKPKYNVRDKKALLRLLDQHDQRGLGGILLEDIEEALPNSQKAVKALGDQILFVNRPDKKKILFFNDKSCQFSVDEEFQKLWRSVTVDSMDEEKIEEYLKRQGISSMQESGPKKVAPIQRRKKPASQKKRRFKTHNEHLAGVLKDYSDITSSK [GTF2E2]”: the “solubility in G1/S (log2)” value with HeLa Kyoto [1] came to 0.797. In addition, the melting temperature is 48.9 °C in the series on HeLa Kyoto [2] (cell cycle stage: G1/S) and 50.2 °C with HeLa Kyoto [2] (cell cycle stage: mitosis). Besides, the “solubility change mitosis (log2)” value in the series on HeLa Kyoto [3] stood at 0.135. Moreover, the thermal stability score in the series on HeLa Kyoto [4] (setting [5]) stood at 1.36; in the series with HeLa Kyoto [4] (cell cycle stage: mitosis), 3.1.

Source of the values: the supplement of paper PMC5998384.
